Experimental data from patent US20070071675A1 (AbbVie / Abbott, published 2007).
One block for each binder: values may come before it.

Key:
recombinant human IL-1α [1] = molecular target: T1, recombinant human IL-1α (human, UniProt P01583 113-271); test: cell-based or functional assay
T1 sequence (looked up): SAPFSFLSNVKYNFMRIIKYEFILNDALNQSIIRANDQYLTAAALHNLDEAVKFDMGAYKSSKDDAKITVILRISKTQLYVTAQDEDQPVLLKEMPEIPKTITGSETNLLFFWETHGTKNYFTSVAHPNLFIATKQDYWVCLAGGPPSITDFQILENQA

recombinant human IL-1β = recombinant human IL-1β (human, UniProt P01584 117-269); test: cell-based or functional assay
recombinant human IL-1α [2] = molecular target: T1, recombinant human IL-1α; test: SPR (Biacore); end of the range tied to DVD1-Ig by the Kd values of Table 13
Experimental: The kinetics of DVD-Ig binding to rhIL1-α and rhIL1-β was determined by surface plasmon resonance-based measurements with a Biacore 3000 instrument (Biacore AB, Uppsala, Sweden) using HBS-EP (10 mM HEPES, pH 7.4, 150 mM NaCl, 3 mM EDTA, and 0.005% surfactant P20) at 25° C. All chemicals were obtained from Biacore AB (Uppsala, Sweden) or otherwise from a different source as described herein. Approximately, 5000 RU of goat anti-human IgG Fcγ fragment specific polyclonal antibody (Pierce Biotechnology Inc, Rockford, Ill.) diluted in 10 mM sodium acetate (pH 4.5) was directly immobilized across a CM5 research grade biosensor chip using a standard amine coupling kit according to manufacturer's instructions and procedures at […]. Unreacted moieties on the biosensor surface were blocked with ethanolamine. Modified carboxymethyl dextran surface in flowcell 2 and 4 was used as a reaction surface. Unmodified carboxymethyl dextran without goat anti-human IgG in flow cell 1 and 3 was used as the reference surface. […] The association and dissociation rate constants, kon (M-1s-1) and koff (s-1) were determined under a continuous flow rate of […]. […] The equilibrium dissociation constant (M) of the reaction between DVD-Ig and rhIL1α/β was then calculated from the kinetic rate constants by the following formula: KD=koff/kon. […]

recombinant human IL-1α [3] = molecular target: T1, recombinant human IL-1α; test: cell-based or functional assay; remark: listed apart in the source
human IL-12 [4] = molecular target: T2, human IL-12 (human, UniProt P29459 23-219; P29460 23-328); test: SPR (Biacore)
T2 construct: also called hIL-12
T2 sequence (looked up) 1: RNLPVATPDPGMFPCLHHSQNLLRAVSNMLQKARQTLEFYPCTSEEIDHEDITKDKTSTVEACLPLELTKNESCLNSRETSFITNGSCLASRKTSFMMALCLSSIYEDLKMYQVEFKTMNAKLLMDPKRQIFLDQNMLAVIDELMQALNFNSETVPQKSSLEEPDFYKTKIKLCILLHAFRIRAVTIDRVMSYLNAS
T2 sequence (looked up) 2: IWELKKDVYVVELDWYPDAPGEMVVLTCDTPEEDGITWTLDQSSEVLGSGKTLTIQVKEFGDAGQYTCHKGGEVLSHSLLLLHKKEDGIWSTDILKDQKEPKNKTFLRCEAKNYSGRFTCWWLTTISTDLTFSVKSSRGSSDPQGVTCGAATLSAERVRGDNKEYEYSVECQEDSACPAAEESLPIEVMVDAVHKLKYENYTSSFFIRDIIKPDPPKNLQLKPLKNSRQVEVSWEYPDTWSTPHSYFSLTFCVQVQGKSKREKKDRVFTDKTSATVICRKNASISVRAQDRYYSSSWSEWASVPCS

human IL-18 [5] = molecular target: T3, human IL-18 (human, UniProt Q14116 37-193); test: SPR (Biacore)
T3 construct: also called hIL-18

human IL-12 [6] = molecular target: T2, human IL-12; test: cell-based or functional assay
human IL-18 [7] = molecular target: T3, human IL-18; test: cell-based or functional assay

B3: hIL-1a/bDVD1-Ig (bispecific antibody, human IgG1, kappa)
heavy: not shown
light: NIVLTQSPASLAVSLGQRATISCRASESVDSYGNSYMHWYQQKPGQPPKLLIYLASNLESGVPARFSGSGSRTDFTLTIDPVEADDAATYYCQQNNEDPFTFGSGTKLEIKRNIQMTQTTSSLSASLGDRVTISCRASQDISNCLNWYQQKPDGTVKLLIYYTSRLHSGVPSRFSGSGSGTDYSLTISNLEQEDIATYFCQQGKTLPYAFGGGTKLEINRRTVAAPSVFIFPPSDEQLKSGTASVVCLLNNFYPREAKVQWKVDNALQSGNSQESVTEQDSKDSTYSLSSTLTLSKADYEKHKVYACEVTHQGLSSPVTKSFNRGEC
notes: 13F5.G5 V domains fused directly (no linker) to the N-terminus of 3D12.E3 V domains; human Cγ1/Cκ; also called hIL-1α/βDVD1-Ig
- fold lower affinity than the chimeric 3D12.E3 Ab (recombinant human IL-1α [2]): 2 to 3 fold
- neutralizing activity, MRC-5 bioassay, fold less than the chimeric Abs (recombinant human IL-1α [3]): 3 fold

B4: hIL-1a/bDVD3a-Ig (bispecific antibody, human IgG1, kappa)
heavy: not shown
light: DIVMTQSQRFMSTSVGDRVSVTCKASQNVGTNIAWYQQKPGQSPRALIYSASYRYSGVPDRFTGSGSGTDFTLTISNVQSVDLAEYFCQQYTRYPLTFGGGTKLEIKRTVAAPETTVTQSPASLSMAIGEKVTIRCITSTDIDVDMNWYQQKPGEPPKLLISQGNTLRPGVPSRFSSSGSGTDFVFIIENMLSEDVADYYCLQSDNLPLTFGAGTKLELKRRTVAAPSVFIFPPSDEQLKSGTASVVCLLNNFYPREAKVQWKVDNALQSGNSQESVTEQDSKDSTYSLSSTLTLSKADYEKHKVYACEVTHQGLSSPVTKSFNRGEC
- Potency (IC50) M, IL-1α, MRC-5 bioassay (recombinant human IL-1α [1]): 0.75 nM

B5: DVD1812LL (anti-IL-18/IL-12 DVD-Ig, 18-12-C, long linker) (bispecific antibody)
heavy: EVQLVQSGTEVKKPGESLKISCKGSGYTVTSYWIGWVRQMPGKGLEWMGFIYPGDSETRYSPTFQGQVTISADKSFNTAFLQWSSLKASDTAMYYCARVGSGWYPYTFDIWGQGTMVTVSSASTKGPSVFPLAPQVQLVESGGGVVQPGRSLRLSCAASGFTFSSYGMHWVRQAPGKGLEWVAFIRYDGSNKYYADSVKGRFTISRDNSKNTLYLQMNSLRAEDTAVYYCKTHGSHDNWGQGTMVTVSS
light: EIVMTQSPATLSVSPGERATLSCRASESISSNLAWYQQKPGQAPRLFIYTASTRATDIPARFSGSGSGTEFTLTISSLQSEDFAVYYCQQYNNWPSITFGQGTRLEIKRTVAAPSVFIFPPQSVLTQPPSVSGAPGQRVTISCSGSRSNIGSNTVKWYQQLPGTAPKLLIYYNDQRPSGVPDRFSGSKSGTSASLAITGLQAEDEADYYCQSYDRYTHPALLFGTGTKVTVLG
notes: see recheck on the constant domain of the DVD1812 light chains; also called DVD1812HC-LL/DVD1812LC-LL
- Kd (human IL-12 [4]): 0.113 nM
- Kd (human IL-18 [5]): 0.162 nM
- Potency (IC50, M), IL-12, PHA blast / PBMC assay (human IL-12 [6]): 1.18e-10 M
- Potency (IC50, M), IL-18, KG-1 bioassay (human IL-18 [7]): 7.8e-11 M

The next lines start with the values.

- Potency (IC50) M, IL-1α, MRC-5 bioassay (recombinant human IL-1α [1]): 1 nM
- Potency (IC50) M, IL-1β, MRC-5 bioassay (recombinant human IL-1β): 0.75 nM
B1: hIL-1a/bDVD6b-Ig (bispecific antibody, human IgG1, kappa)
heavy: not shown
light: QIVLTQSPAIMSASPGEKVTITCSASSSVSYMHWFQQKPGASPKLWIYSTSNLASGVPARFSGSGSGTSYSLTVSRMEAEDAATYYCQQRSTYPYTFGGGTKLEIKRTVAAPSVFIFPPQIVLTQSPALMSASPGEKVTMTCSASSSVNYMYWYQQKPRSSPKPWIYLTSNLASGVPARFSGSGSGTSYSLTISSMEAEDAATYYCQQWNSNPYTFGGGTKLEMKRRTVAAPSVFIFPPSDEQLKSGTASVVCLLNNFYPREAKVQWKVDNALQSGNSQESVTEQDSKDSTYSLSSTLTLSKADYEKHKVYACEVTHQGLSSPVTKSFNRGEC

- Potency (IC50) M, IL-1α, MRC-5 bioassay (recombinant human IL-1α [1]): 2.3 nM
- Potency (IC50) M, IL-1β, MRC-5 bioassay (recombinant human IL-1β): 70 nM
B2: hIL-1a/bDVD6a-Ig (bispecific antibody, human IgG1, kappa)
heavy: not shown
light: QIVLTQSPALMSASPGEKVTMTCSASSSVNYMYWYQQKPRSSPKPWIYLTSNLASGVPARFSGSGSGTSYSLTISSMEAEDAATYYCQQWNSNPYTFGGGTKLEMKRTVAAPSVFIFPPQIVLTQSPAIMSASPGEKVTITCSASSSVSYMHWFQQKPGASPKLWIYSTSNLASGVPARFSGSGSGTSYSLTVSRMEAEDAATYYCQQRSTYPYTFGGGTKLEIKRRTVAAPSVFIFPPSDEQLKSGTASVVCLLNNFYPREAKVQWKVDNALQSGNSQESVTEQDSKDSTYSLSSTLTLSKADYEKHKVYACEVTHQGLSSPVTKSFNRGEC
